Measured values: patent US12522656B2, “Anti-G-protein alpha antibody” (CISBIO BIOASSAYS, priority 2020, dated 2026)

Legend:
Delta Opioid GPCR = Delta Opioid GPCR (Homo sapiens, UniProt P41143); test: Activation assay format 2A on Delta Opioid GPCR, agonist/antagonist modulation of TR-FRET signal; details: fixed SNC162 200 nM; increasing concentration of antagonist; GTPgN-octyl-C2 + DSV36S-d2; FIG. 16B
DOR receptors = molecular target: T1, DOR receptors (Homo sapiens, UniProt P41143); test: Activation of DOR in HEK293 membranes read by TR-FRET (fluorescent GTP analog + labeled antibody); type: biochemical; details: SNC162 10 μM; read as increase of FRET signal with DSV36S-d2 / DSV38S-d2
T1 construct: expressed in transfected cells; host or cells: HEK293 membranes
T1 sequence (P41143 whole entry): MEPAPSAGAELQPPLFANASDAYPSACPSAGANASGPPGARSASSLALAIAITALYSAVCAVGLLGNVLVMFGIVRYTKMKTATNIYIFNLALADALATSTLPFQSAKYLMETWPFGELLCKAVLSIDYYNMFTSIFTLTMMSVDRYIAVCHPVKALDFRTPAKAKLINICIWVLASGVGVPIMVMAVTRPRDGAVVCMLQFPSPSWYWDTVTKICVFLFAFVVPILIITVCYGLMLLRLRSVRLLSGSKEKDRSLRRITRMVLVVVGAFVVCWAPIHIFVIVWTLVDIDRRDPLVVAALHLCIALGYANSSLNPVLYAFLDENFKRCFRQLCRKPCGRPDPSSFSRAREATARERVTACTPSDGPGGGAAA
Procedure: (§1) HEK293 membranes expressing the DOR receptor were prepared 4× for a final amount in the wells of 10 μg. The antibodies DSV36S-d2, DSV38S-d2, SC13533-d2 and anti-FLAG-d2 were prepared 4× for a final concentration in the wells of 10 nM.
(§2) The reagents were distributed in the 384-well plates as follows: • 1) 5 μl of DOR membranes was put in each well, • 2) 5 μl of GTPgN-octyl-C2 labeled with europium cryptate or GTPgO-linker-Cy5 was added to each well, • 3) 5 μl of antibody DSV36S or DSV38S or SC13533 or DSV 26S or DSV3S or DSV 39S labeled with d2 or DSV 36S or SC13533 labeled with terbium cryptate was added to each well, • 4) 5 μl of buffer or SNC 162 or GTPgS was added to each well.
(§3) The plates were incubated for 20 h at room temperature before reading the HTRF signal.

Gαi1 [1] = molecular target: T2, Gαi1 (Homo sapiens, UniProt P63096); test: Determination of affinity (Kd) of d2-labeled antibodies for G-protein αi1 by HTRF/FRET; type: binding
T2 sequence (P63096 whole entry): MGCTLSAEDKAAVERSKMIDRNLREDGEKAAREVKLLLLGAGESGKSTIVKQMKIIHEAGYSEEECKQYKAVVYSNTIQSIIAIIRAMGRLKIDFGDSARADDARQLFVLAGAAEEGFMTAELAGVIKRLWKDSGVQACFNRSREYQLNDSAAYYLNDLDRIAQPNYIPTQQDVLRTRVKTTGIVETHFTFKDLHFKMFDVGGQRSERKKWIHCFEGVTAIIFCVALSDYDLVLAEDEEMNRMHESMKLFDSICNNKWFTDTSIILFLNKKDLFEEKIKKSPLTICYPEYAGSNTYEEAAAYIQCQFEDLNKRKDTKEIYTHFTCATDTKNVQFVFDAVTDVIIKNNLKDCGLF
Procedure: These two reagents were prepared in one and the same solution and were preincubated for 30 minutes at room temperature before being distributed in the wells. The antibodies DSV36S-d2, DSV38S-d2 and SC13533-d2 were prepared 4× for final concentrations in the wells between 0.01 and 10 nM depending on the antibodies.
The reagents were distributed in the 384-well plates as follows: • 1) 10 μl of the preincubation mixture of G-protein αi1+buffer only or GTPgS or GDP was put in each well, • 2) 5 μl of the antibody DSV36S or DSV38S or SC13533 labeled with d2 was added to each well, • 3) 5 μl of the anti Twin-Strep-tag-Lumi4 Tb antibody was added to each well.
The plates were incubated for 24 h at room temperature before reading the HTRF signal.
Moreover, the antibody titration curves obtained make it possible to calculate the affinity (Kd) of these different antibodies for the G-protein αi1. This was carried out using the GraphPad Prism software by applying a “one site specific binding” model to the HTRF data.

Gαi1 [2] = molecular target: T2, Gαi1; test: HTRF competition: unlabeled antibodies versus binding of SC13533-d2 on G-protein αi1; details: unlabeled antibody 0.01-100 nM; SC13533-d2 10 nM; GTPgS 10 μM
Procedure: (§4) These two reagents were prepared in one and the same solution and were preincubated for 30 minutes at room temperature before being distributed in the wells. The cold antibodies DSV36S, DSV38S and SC13533 were prepared 4× for final concentrations in the wells between 0.01 and 100 nM. The antibody SC 13533-d2 was prepared 4× for a final concentration of 10 nM.
(§5) The reagents were distributed in the 384-well plates as follows: • 1) 10 μl of the preincubated mixture of G-protein αi1+GTPgS was put in each well, • 2) 5 μl of the unlabeled antibody DSV36S or DSV38S or SC56536 or AM05302PU-N or SC13533 was added to each well, • 3) The plates were incubated for 30 minutes at room temperature, • 4) 5 μl of the anti Twin-Strep-tag-Lumi4 Tb antibody and of the antibody SC13533-d2 were added to each well.
(§6) The plates were incubated for 1 h at room temperature before reading the HTRF signal.

Gαi1 [3] = molecular target: T2, Gαi1; test: HTRF competition: unlabeled antibodies versus binding of DSV36S-d2 on G-protein αi1; details: unlabeled antibody 0.001-1 μM; DSV36S-d2 10 nM; GTPgS 100 μM
Procedure: as §4, with “DSV38S, DSV26S, DSV3S,” for “DSV38S”, “DSV39S” for “SC13533”, “0.001” for “0.01”, “1 μM.” for “100 nM.”, “DSV36S-d2” for “SC 13533-d2”
as §5, with “antibodies DSV36S, DSV38S, DSV26S, DSV3S, and DSV39S” for “antibody DSV36S or DSV38S or SC56536 or AM05302PU-N or SC13533”, “DSV36S-d2” for “SC13533-d2”
as §6

Gα12 = molecular target: T3, Gα12 (Homo sapiens, UniProt Q03113); test: HTRF selectivity assay, G-protein α overexpressed in HEK293 cells; type: binding; details: antibody-d2 10 nM, 20 h
T3 construct: host or cells: HEK293
T3 sequence (Q03113 1-381): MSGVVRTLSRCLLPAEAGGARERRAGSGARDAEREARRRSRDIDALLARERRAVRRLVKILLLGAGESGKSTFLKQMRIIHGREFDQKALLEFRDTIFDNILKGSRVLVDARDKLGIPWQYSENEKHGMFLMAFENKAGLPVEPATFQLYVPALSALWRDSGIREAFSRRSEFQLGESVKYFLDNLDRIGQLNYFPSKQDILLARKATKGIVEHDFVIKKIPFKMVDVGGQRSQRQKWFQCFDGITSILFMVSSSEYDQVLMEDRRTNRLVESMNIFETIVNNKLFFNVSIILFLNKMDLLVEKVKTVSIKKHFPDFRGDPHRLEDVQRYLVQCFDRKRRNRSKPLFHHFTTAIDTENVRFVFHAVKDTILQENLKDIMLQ
Procedure: (§7) A solution containing 1 million HEK cells/ml was prepared in OptiMEM medium. Mixtures of plasmids/Lipofectamine containing 150 ng/well of plasmids and 0.375 μl of lipofectamine were prepared in OptiMEM medium 30 minutes before adding them to the 96-well plate with black-bottomed wells.
(§8) Distribution of the reagents in each well of the black microplate suitable for cell culture: • 1) 50 μl per well of polyornithine was incubated for 30 minutes at room temperature and then the solution was withdrawn from each well by aspiration. • 2) 50 μl of the preparation of HEK293 (cell density of 50000 cells per well) was added to each well • 3) 50 μl of the mixture of plasmids coding for a G-protein+lipofectamine was added to each well.
(§9) The microplates were incubated for 24 h at 37° C. and 5% CO2 (regulated stove).
(§10) The antibodies DSV36S-d2, DSV38S-d2 and SC13533-d2 were prepared 4× for a final concentration in the wells of 10 nM.
(§11) The reagents were distributed on the 384-well plates as follows: • 1) The OptiMEM culture medium was aspirated, • 2) 25 μl of buffer or GDP or GTP was added to each well, • 3) 25 μl of buffer was added to each well, • 4) 25 μl of antibody DSV36S-d2 or DSV38S-d2 or SC13533-d2 or anti-FLAG-d2 was added to each well, • 5) 25 μl of anti Twin-Strep-tag-Lumi4 Tb antibody was added to each well.
(§12) The microplates were incubated for 20 h at room temperature before reading the HTRF signal.

Gα13 = molecular target: T4, Gα13 (Homo sapiens, UniProt Q14344); test: as above; type: binding; details: antibody-d2 10 nM, 20 h
T4 sequence (Q14344 1-377): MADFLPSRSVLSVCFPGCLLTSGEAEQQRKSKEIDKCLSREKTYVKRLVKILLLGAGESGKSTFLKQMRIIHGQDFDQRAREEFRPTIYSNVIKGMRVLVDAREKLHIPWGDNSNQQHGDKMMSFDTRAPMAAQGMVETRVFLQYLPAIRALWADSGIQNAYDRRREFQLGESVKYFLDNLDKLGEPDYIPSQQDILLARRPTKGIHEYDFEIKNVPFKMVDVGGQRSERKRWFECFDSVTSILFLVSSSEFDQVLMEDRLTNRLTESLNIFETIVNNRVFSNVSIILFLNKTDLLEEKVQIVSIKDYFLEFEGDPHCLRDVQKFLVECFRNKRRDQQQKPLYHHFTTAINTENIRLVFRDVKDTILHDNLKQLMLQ
Procedure: as §7, §8, §9, §10, §11, §12

Gαi1 [4] = molecular target: T2, Gαi1; test: as above; type: binding; details: antibody-d2 10 nM, 20 h
Procedure: as §7, §8, §9, §10, §11, §12

Gαi2 = Gαi2 (Homo sapiens, UniProt P04899); test: as above; type: binding; details: antibody-d2 10 nM, 20 h
Chain of Gαi2 (P04899 whole entry): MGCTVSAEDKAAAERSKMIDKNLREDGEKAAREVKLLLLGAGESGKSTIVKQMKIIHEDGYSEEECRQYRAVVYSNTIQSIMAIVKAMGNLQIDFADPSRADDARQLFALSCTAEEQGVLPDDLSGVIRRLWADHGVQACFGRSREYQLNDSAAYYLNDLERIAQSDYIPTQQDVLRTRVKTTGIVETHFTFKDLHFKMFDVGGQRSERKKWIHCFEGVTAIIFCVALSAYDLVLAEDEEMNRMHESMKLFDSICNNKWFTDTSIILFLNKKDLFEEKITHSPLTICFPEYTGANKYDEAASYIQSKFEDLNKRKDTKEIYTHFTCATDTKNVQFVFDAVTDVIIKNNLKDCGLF
Procedure: as §7, §8, §9, §10, §11, §12

Gαi3 = molecular target: T5, Gαi3 (Homo sapiens, UniProt P08754); test: as above; type: binding; details: antibody-d2 10 nM, 20 h
T5 construct: host or cells: HEK293
T5 sequence (P08754 whole entry): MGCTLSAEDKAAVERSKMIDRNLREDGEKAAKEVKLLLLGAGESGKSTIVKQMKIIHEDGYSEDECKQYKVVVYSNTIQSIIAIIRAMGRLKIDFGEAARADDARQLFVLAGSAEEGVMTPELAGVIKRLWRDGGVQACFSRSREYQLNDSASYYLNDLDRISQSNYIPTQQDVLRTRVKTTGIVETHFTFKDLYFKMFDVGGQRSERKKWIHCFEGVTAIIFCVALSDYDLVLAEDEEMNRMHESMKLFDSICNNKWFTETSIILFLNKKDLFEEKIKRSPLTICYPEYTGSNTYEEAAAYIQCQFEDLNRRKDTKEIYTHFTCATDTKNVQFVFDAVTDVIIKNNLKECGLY
Procedure: as §7, §8, §9, §10, §11, §12

Gαo = Gαo (Homo sapiens, UniProt P09471); test: as above; type: binding; details: antibody-d2 10 nM, 20 h
Chain of Gαo (P09471 whole entry): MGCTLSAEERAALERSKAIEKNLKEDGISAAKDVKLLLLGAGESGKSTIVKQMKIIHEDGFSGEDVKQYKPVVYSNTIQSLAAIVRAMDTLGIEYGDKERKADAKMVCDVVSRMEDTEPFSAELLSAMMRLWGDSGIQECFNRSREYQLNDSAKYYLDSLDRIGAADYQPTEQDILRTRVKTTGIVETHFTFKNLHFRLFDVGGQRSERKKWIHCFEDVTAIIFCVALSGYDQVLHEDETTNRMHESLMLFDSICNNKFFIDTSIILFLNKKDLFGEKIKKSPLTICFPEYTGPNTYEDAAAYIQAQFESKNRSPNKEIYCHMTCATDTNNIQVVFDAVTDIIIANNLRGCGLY
Procedure: as §7, §8, §9, §10, §11, §12

Gαq = molecular target: T6, Gαq (Homo sapiens, UniProt P50148); test: as above; type: binding; details: antibody-d2 10 nM, 20 h
T6 sequence (P50148 1-359): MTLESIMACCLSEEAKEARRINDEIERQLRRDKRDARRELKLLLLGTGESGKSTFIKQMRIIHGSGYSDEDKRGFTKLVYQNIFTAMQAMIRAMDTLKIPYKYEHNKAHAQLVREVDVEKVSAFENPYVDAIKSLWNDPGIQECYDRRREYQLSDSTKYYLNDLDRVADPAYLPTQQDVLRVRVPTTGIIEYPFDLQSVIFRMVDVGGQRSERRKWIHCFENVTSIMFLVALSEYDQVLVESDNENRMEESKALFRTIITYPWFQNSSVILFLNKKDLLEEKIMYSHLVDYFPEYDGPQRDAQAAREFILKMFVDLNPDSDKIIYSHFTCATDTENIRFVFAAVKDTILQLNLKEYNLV
Procedure: as §7, §8, §9, §10, §11, §12

Gαs = Gαs (Homo sapiens, UniProt P63092); test: as above; type: binding; details: antibody-d2 10 nM, 20 h
Chain of Gαs (P63092 whole entry): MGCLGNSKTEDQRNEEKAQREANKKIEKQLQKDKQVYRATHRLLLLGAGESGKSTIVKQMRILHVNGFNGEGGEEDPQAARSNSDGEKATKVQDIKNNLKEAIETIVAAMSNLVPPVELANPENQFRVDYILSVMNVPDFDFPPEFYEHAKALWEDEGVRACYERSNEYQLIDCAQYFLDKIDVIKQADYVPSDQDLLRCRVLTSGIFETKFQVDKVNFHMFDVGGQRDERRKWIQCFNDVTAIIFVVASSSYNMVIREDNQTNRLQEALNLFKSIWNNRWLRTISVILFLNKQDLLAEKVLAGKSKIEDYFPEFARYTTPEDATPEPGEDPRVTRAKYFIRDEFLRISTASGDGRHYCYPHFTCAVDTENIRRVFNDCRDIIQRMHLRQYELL
Procedure: as §7, §8, §9, §10, §11, §12

Gαz = molecular target: T7, Gαz (Homo sapiens, UniProt P19086); test: as above; type: binding; details: antibody-d2 10 nM, 20 h
T7 construct: host or cells: HEK293
T7 sequence (P19086 whole entry): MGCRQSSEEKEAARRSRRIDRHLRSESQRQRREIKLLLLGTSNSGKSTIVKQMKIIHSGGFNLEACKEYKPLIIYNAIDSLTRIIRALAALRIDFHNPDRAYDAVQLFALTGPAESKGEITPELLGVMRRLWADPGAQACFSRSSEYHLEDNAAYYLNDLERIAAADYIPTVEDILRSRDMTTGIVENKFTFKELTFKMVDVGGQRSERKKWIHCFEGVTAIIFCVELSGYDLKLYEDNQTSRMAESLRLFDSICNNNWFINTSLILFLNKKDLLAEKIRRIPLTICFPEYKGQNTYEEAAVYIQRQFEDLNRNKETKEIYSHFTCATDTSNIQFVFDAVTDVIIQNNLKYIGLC
Procedure: as §7, §8, §9, §10, §11, §12

G-proteins α = test: TR-FRET signal of labeled antibody combined with fluorescent GTP analog on HEK293 membranes expressing the DOR receptor; type: binding; details: for FRET signal with GTPgN-octyl-C2-Europium cryptate: antibody labeled with d2 10 nM, GTP analog 6 nM, FIG. 11
Procedure: as §1, §2, §3

Chain of Delta Opioid GPCR (P41143 whole entry): as the sequence (P41143 whole entry) above

## Oc1ccc2c3c1O[C@H]1c4[nH]c5ccccc5c4C[C@@]4(O)[C@@H](C2)N(CC2CC2)CC[C@]314 [Naltrindole]
Delta Opioid GPCR
  effect on activation by SNC162 (TR-FRET signal, HTRF ratio): inhibited

## C=CCN1C[C@H](C)N([C@@H](c2ccccc2)c2ccc(C(=O)N(CC)CC)cc2)C[C@H]1C [SNC162]
DOR receptors
  activation of the DOR receptors overexpressed in the membranes: caused activation of the DOR receptors

B1: DSV36S: anti-G-protein alpha antibody; VH consists of SEQ ID NO: 14, VL of SEQ ID NO: 15; generated by Cisbio Bioassays (antibody, V domains shown)
VH: EVQLQQSGAELVRPGALVKLSCKASGFNIKDYYMHWVKQRPEQGLEWIGWIDPENGNTIYDPKFQGKASITADTSSNTAYLQLSSLTSEDTAVYYCTRGGGYYSDWYFDVWGAGTTVTVSS
VL: QIVLTQSPAIMSASPGEKVTMTCSASSSVSYMHWYQQKSGTSPKRWIYDTSKLASGVPARFSGSGSGTSYSLTISSMEAEDAATYYCQQWSSNPPITFGAGTKLELK
modifications: Variable domain of the heavy chain (VH); Light Chain Variable Domain (VL)
notes: anti-G-protein alpha antibody; generated by Cisbio Bioassays
Gαi1 [1]; G-protein αi1 bound to a nucleotide (in particular GTPgS) versus empty
  signal and affinity depending on the state of G-protein αi1: higher signal and higher affinity
Gαi1 [1]; antibodies labeled with d2, in the presence and in the absence of nucleotide (GTPgS or GDP)
  capacity for binding the G-protein αi1 (HTRF signal): capable of binding the G-protein αi1
Gαi1 [2]
  inhibition of the HTRF signal obtained with antibody SC13533-d2: not capable of inhibiting
Gαi1 [3]
  inhibition of the HTRF signal obtained with antibody DSV36S-d2: completely inhibited
Gα12
  HTRF signal with anti-Twin-Strep-tag-Lumi4 Tb: did not give an HTRF signal
Gα13
  HTRF signal with anti-Twin-Strep-tag-Lumi4 Tb: did not give an HTRF signal
Gαi1 [4]
  HTRF signal with anti-Twin-Strep-tag-Lumi4 Tb: positive HTRF signal
Gαi2
  HTRF signal with anti-Twin-Strep-tag-Lumi4 Tb: positive HTRF signal
Gαi3
  HTRF signal with anti-Twin-Strep-tag-Lumi4 Tb: positive HTRF signal
Gαo
  HTRF signal with anti-Twin-Strep-tag-Lumi4 Tb: positive HTRF signal
Gαq
  HTRF signal with anti-Twin-Strep-tag-Lumi4 Tb: did not give an HTRF signal
Gαs
  HTRF signal with anti-Twin-Strep-tag-Lumi4 Tb: did not give an HTRF signal
Gαz
  HTRF signal with anti-Twin-Strep-tag-Lumi4 Tb: positive HTRF signal
G-proteins α; condition buffer (absence of SNC162)
  FRET signal with GTPgN-octyl-C2-Europium cryptate: moderate but significant FRET signal
G-proteins α; on adding SNC162 10 μM
  FRET signal with GTPgN-octyl-C2-Europium cryptate: increase of this FRET signal
G-proteins α; unactivated membrane preparations, antibodies labeled with d2, FIG. 12
  FRET signal with Europium GTPgN-octyl-C2-cryptate: increase of the FRET signal
